± gives the standard deviation of the averaged measurements.
Legend:
Saccharomyces cerevisiae [1] = assay: protein stability index of tFT-peptide fusion (C-terminal peptide) (PSI (0-1 scale)); higher = more stable (slower turnover); details: genetic background: wild type; temperature: 30 C
Saccharomyces cerevisiae [2] = assay: as above
Description: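 MPS profiling in S. cerevisiae of the tFT-X12 degron library: putative degron peptides plus stable controls, 12 aa, fused to the C-terminus of a sfGFP-mCherry timer. Cells are FACS-sorted into 8 mCherry/sfGFP bins and deep-sequenced. PSI runs from 0 (unstable) to 1 (stable). Backgrounds are wild type, das1Δ and doa10Δ at 30 °C, and wild type, das1Δ, cdc34-1 and cdc53-1 at 37 °C; 2-3 technical replicates each.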

[3] = genetic background: cdc34-1, temperature: 37 C
[4] = genetic background: cdc53-1, temperature: 37 C
[5] = genetic background: das1 deletion, temperature: 30 C
[6] = genetic background: das1 deletion, temperature: 37 C
[7] = genetic background: doa10 deletion, temperature: 30 C
[8] = genetic background: wild type, temperature: 30 C
[9] = genetic background: wild type, temperature: 37 C
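Note: PSI is a weighted mean of sequencing reads over stability bins, variants kept only with over 10 reads, mCherry proximal and sfGFP distal, peptide attached via GGGS linker.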

| Sequence | protein stability index (Saccharomyces cerevisiae [1]) | protein stability index (Saccharomyces cerevisiae [2]; [3]) | protein stability index (Saccharomyces cerevisiae [2]; [4]) | protein stability index (Saccharomyces cerevisiae [2]; [5]) | protein stability index (Saccharomyces cerevisiae [2]; [6]) | protein stability index (Saccharomyces cerevisiae [2]; [7]) | protein stability index (Saccharomyces cerevisiae [2]; [8]) | protein stability index (Saccharomyces cerevisiae [2]; [9]) |
| --- | --- | --- | --- | --- | --- | --- | --- | --- |
| FPSCYIWEVEVM | 0.442 ± 0.037 | 0.403 ± 0.049 | 0.403 ± 0.021 | 0.32 ± 0.039 | 0.484 ± 0.038 | 0.268 ± 0.0021 | 0.333 ± 0.023 | 0.436 ± 0.0047 |
| FPSLLFALFLFI | 0.475 ± 0.017 | 0.481 ± 0.046 | 0.502 ± 0.0056 | 0.436 ± 0.027 | 0.5271 ± 0.00065 | 0.4401 ± 0.0013 | 0.415 ± 0.036 | 0.501 ± 0.018 |
| FPVSSRSFSFIP | 0.727 ± 0.046 | 0.66 ± 0.051 | 0.7594 ± 0.0028 | 0.666 ± 0.02 | 0.732 ± 0.019 | 0.627 ± 0.02 | 0.656 ± 0.028 | 0.717 ± 0.053 |
| FRFYCGLVIANV | 0.483 ± 0.027 | 0.455 ± 0.016 | 0.484 ± 0.029 | 0.385 ± 0.019 | 0.51729 ± 0.00021 | 0.359 ± 0.03 | 0.377 ± 0.031 | 0.531 ± 0.039 |
| FSCLCLCVATSG | 0.23 ± 0.013 | 0.348 ± 0.031 | 0.396 ± 0.056 | 0.221 ± 0.019 | 0.379 ± 0.015 | 0.237 ± 0.031 | 0.219 ± 0.023 | 0.355 ± 0.03 |
| FSFSAFARFLVI | 0.358 ± 0.036 | 0.618 ± 0.048 | 0.704 ± 0.02 | 0.604 ± 0.033 | 0.6999 ± 0.0034 | 0.243 ± 0.0081 | 0.255 ± 0.025 | 0.378 ± 0.018 |
| FSFSCFFFVLFV | 0.127 ± 0.0048 | 0.0608 ± 0.036 | 0.0424 ± 0.002 | 0.0913 ± 0.018 | 0.11 ± 0.022 | 0.265 ± 0.0023 | 0.0703 ± 0.038 | 0.0898 ± 0.017 |
| FSFSFYFALASF | 0.4603 ± 0.00095 | 0.474 ± 0.047 | 0.514 ± 0.0099 | 0.425 ± 0.018 | 0.495 ± 0.011 | 0.41 ± 0.0077 | 0.422 ± 0.0075 | 0.483 ± 0.034 |
| FTFLFPLRLLPL | 0.3469 ± 0.00084 | 0.305 ± 0.051 | 0.295 ± 0.025 | 0.377 ± 0.036 | 0.478 ± 0.015 | 0.586 ± 0.033 | 0.374 ± 0.009 | 0.442 ± 0.011 |
| FVFCGVVFLFLL | 0.351 ± 0.086 | 0.399 ± 0.033 | 0.467 ± 0.0057 | 0.395 ± 0.058 | 0.519 ± 0.018 | 0.347 ± 0.0093 | 0.326 ± 0.018 | 0.462 ± 0.0044 |
| FVFIFIRVFFFR | 0.269 ± 0.011 | 0.174 ± 0.0037 | 0.207 ± 0.024 | 0.189 ± 0.044 | 0.308 ± 0.017 | 0.171 ± 0.0012 | 0.176 ± 0.011 | 0.2451 ± 0.0022 |
| FVFLVLGPYAMF | 0.415 ± 0.0026 | 0.444 ± 0.032 | 0.512 ± 0.013 | 0.354 ± 0.028 | 0.609 ± 0.048 | 0.346 ± 0.013 | 0.341 ± 0.01 | 0.556 ± 0.019 |
| FVGVLVLCVCRC | 0.278 ± 0.024 | 0.0544 ± 0.0064 | 0.137 ± 0.015 | 0.17 ± 0.029 | 0.247 ± 0.021 | 0.116 ± 0.025 | 0.155 ± 0.025 | 0.21 ± 0.014 |
| FVLFCWFFCIVW | 0.273 ± 0.043 | 0.293 ± 0.019 | 0.326 ± 0.029 | 0.263 ± 0.011 | 0.3625 ± 0.00095 | 0.286 ± 0.032 | 0.226 ± 0.033 | 0.342 ± 0.012 |
| FVSFFRWLLVSI | 0.152 ± 0.028 | 0.267 ± 0.016 | 0.201 ± 0.04 | 0.358 ± 0.039 | 0.4432 ± 0.0011 | 0.211 ± 0.017 | 0.163 ± 0.015 | 0.218 ± 0.0089 |
| FYAAILCLLFSC | 0.341 ± 0.012 | 0.478 ± 0.037 | 0.512 ± 0.014 | 0.45 ± 0.035 | 0.546 ± 0.013 | 0.22913 ± 0.00013 | 0.265 ± 0.021 | 0.385 ± 0.0066 |
| GCDVWCLVLRMG | 0.47 ± 0.018 | 0.651 ± 0.016 | 0.68429 ± 0.00024 | 0.517 ± 0.0083 | 0.676 ± 0.031 | 0.418 ± 0.013 | 0.435 ± 0.019 | 0.63 ± 0.025 |
| GCFVDRVYVVVV | 0.4763 ± 0.00091 | 0.52605 ± 0.00036 | 0.543 ± 0.043 | 0.381 ± 0.026 | 0.546 ± 0.016 | 0.366 ± 0.014 | 0.387 ± 0.022 | 0.522 ± 0.0064 |
| GCLFASWPLAVC | 0.303 ± 0.043 | 0.104 ± 0.026 | 0.109 ± 0.0041 | 0.214 ± 0.022 | 0.2564 ± 0.0019 | 0.166 ± 0.008 | 0.198 ± 0.016 | 0.209 ± 0.0077 |
| GCSVSLCCVFVV | 0.372 ± 0.022 | 0.489 ± 0.016 | 0.503 ± 0.021 | 0.36 ± 0.028 | 0.525 ± 0.01 | 0.2589 ± 0.0012 | 0.282 ± 0.025 | 0.433 ± 0.0093 |

| Sequence | protein stability index (Saccharomyces cerevisiae [1]) | protein stability index (Saccharomyces cerevisiae [2]; [3]) | protein stability index (Saccharomyces cerevisiae [2]; [4]) | protein stability index (Saccharomyces cerevisiae [2]; [5]) | protein stability index (Saccharomyces cerevisiae [2]; [6]) | protein stability index (Saccharomyces cerevisiae [2]; [7]) | protein stability index (Saccharomyces cerevisiae [2]; [8]) | protein stability index (Saccharomyces cerevisiae [2]; [9]) |
| --- | --- | --- | --- | --- | --- | --- | --- | --- |
| GCVGLSFCVWVG | 0.314 ± 0.023 | 0.382 ± 0.011 | 0.502 ± 0.02 | 0.323 ± 0.031 | 0.523 ± 0.026 | 0.175 ± 0.015 | 0.211 ± 0.018 | 0.3965 ± 0.0014 |
| GDSVRVIIFCLN | 0.304 ± 0.081 | 0.465 ± 0.041 | 0.707 ± 0.086 | 0.339 ± 0.054 | 0.686 ± 0.068 | 0.119 ± 0.02 | 0.136 ± 0.027 | 0.1273 ± 0.00068 |
| GEVLWAVLLVSC | 0.299 ± 0.0047 | 0.1782 ± 0.00065 | 0.208 ± 0.016 | 0.215 ± 0.029 | 0.343 ± 0.0077 | 0.164 ± 0.023 | 0.198 ± 0.038 | 0.3 ± 0.0077 |
| GFFCFLYFVVMF | 0.226 ± 0.021 | 0.148 ± 0.0033 | 0.1695 ± 0.0013 | 0.18 ± 0.026 | 0.296 ± 0.013 | 0.2127 ± 0.0014 | 0.187 ± 0.018 | 0.277 ± 0.0028 |
| GFIRVRHLRSLC | 0.234 ± 0.026 | 0.55 ± 0.0029 | 0.658 ± 0.024 | 0.645 ± 0.019 | 0.7128 ± 0.0023 | 0.121 ± 0.019 | 0.138 ± 0.015 | 0.194 ± 0.026 |
| GFSFFFIFWFFF | 0.348 ± 0.022 | 0.394 ± 0.014 | 0.422 ± 0.011 | 0.35 ± 0.018 | 0.503 ± 0.034 | 0.378 ± 0.034 | 0.339 ± 0.027 | 0.436 ± 0.033 |
| GFVCFIHLFLCF | 0.407 ± 0.04 | 0.3496 ± 0.0027 | 0.365 ± 0.011 | 0.334 ± 0.027 | 0.425 ± 0.027 | 0.471 ± 0.045 | 0.316 ± 0.0089 | 0.367 ± 0.0056 |
| GFVVYLLLSYLF | 0.333 ± 0.091 | 0.34 ± 0.016 | 0.413 ± 0.035 | 0.279 ± 0.039 | 0.482 ± 0.016 | 0.256 ± 0.0032 | 0.28 ± 0.019 | 0.437 ± 0.024 |
| GGFHWCPSASRG | 0.711 ± 0.017 | 0.712 ± 0.01 | 0.755 ± 0.016 | 0.647 ± 0.031 | 0.7536 ± 0.0026 | 0.678 ± 0.02 | 0.6726 ± 0.0059 | 0.749 ± 0.014 |
| GGGGLRVVVWLV | 0.211 ± 0.049 | 0.534 ± 0.032 | 0.647 ± 0.022 | 0.501 ± 0.021 | 0.6625 ± 0.0052 | 0.111 ± 0.011 | 0.124 ± 0.018 | 0.15 ± 0.01 |
| GGRLGRAGGGGR | 0.639 ± 0.22 | 0.633 ± 0.026 | 0.7243 ± 0.0029 | 0.642 ± 0.024 | 0.7168 ± 0.00089 | 0.66 ± 0.026 | 0.6472 ± 0.0025 | 0.68996 ± 0.00034 |
| GGVVLVVVFCCV | 0.42 ± 0.13 | 0.165 ± 0.0053 | 0.34 ± 0.02 | 0.217 ± 0.025 | 0.352 ± 0.01 | 0.18 ± 0.015 | 0.204 ± 0.029 | 0.3395 ± 0.00053 |
| GHFILFWVFCFM | 0.369 ± 0.024 | 0.316 ± 0.058 | 0.39 ± 0.014 | 0.31 ± 0.046 | 0.453 ± 0.031 | 0.254 ± 0.0053 | 0.303 ± 0.023 | 0.409 ± 0.024 |
| GHSALWQVPRLM | 0.474 ± 0.015 | 0.697 ± 0.053 | 0.733 ± 0.014 | 0.65 ± 0.048 | 0.7535 ± 0.0069 | 0.26 ± 0.013 | 0.29 ± 0.0041 | 0.574 ± 0.023 |
| GLCGVVVGCWVR | 0.397 ± 0.014 | 0.395 ± 0.017 | 0.417 ± 0.017 | 0.286 ± 0.027 | 0.484 ± 0.016 | 0.293 ± 0.011 | 0.283 ± 0.021 | 0.4657 ± 0.0044 |
| GLDLLTKFSKEC | 0.465 ± 0.034 | 0.678 ± 0.049 | 0.734 ± 0.036 | 0.617 ± 0.02 | 0.741 ± 0.015 | 0.291 ± 0.027 | 0.33 ± 0.015 | 0.585 ± 0.011 |
| GLFFLCLLSMCF | 0.384 ± 0.061 | 0.34 ± 0.012 | 0.303 ± 0.021 | 0.306 ± 0.029 | 0.423 ± 0.023 | 0.336 ± 0.014 | 0.29 ± 0.029 | 0.396 ± 0.0071 |
| GLNKGKYIKLYT | 0.558 ± 0.089 | 0.68 ± 0.021 | 0.756 ± 0.017 | 0.635 ± 0.035 | 0.733 ± 0.08 | 0.4605 ± 0.0033 | 0.486 ± 0.0097 | 0.641 ± 0.034 |
| GLSVLLTCIHFV | 0.256 ± 0.0041 | 0.537 ± 0.031 | 0.65 ± 0.042 | 0.482 ± 0.013 | 0.598 ± 0.01 | 0.164 ± 0.023 | 0.176 ± 0.026 | 0.333 ± 0.014 |

Reference: the supplement of paper PMC10724198
